Assays:
[1] = target: T1, M2-1 WT (Human respiratory syncytial virus …, UniProt P04545 1-194); experiment: X-ray crystallography
T1 sequence: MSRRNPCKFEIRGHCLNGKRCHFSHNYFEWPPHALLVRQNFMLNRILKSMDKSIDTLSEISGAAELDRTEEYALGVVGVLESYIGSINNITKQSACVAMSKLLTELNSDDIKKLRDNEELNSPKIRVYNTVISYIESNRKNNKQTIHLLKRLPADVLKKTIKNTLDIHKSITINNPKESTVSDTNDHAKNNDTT

[2] = target: T1, M2-1 WT; experiment: MST

**Q.** Does AGUUAAU (ssRNA) [SH7] bind [1]?
**A.** binds

**Q.** AGUUAAUUAAAAA (ssRNA) [SH 13-nt positive-sense gene-end RNA] was tested. Which Kd [2] did it give?
**A.** 870 nM

— paper PMC7484405
